Source: paper PMC7377350

Target: T1, CREB B-ZIP domain (UniProt P16220 269-327)
T1 sequence: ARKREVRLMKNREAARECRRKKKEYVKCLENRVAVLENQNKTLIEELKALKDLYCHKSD
Assay: EMSA

B1: CREB (CRE) 28-mer (dsDNA)
DNA 1: GTCAGTCAGATGACGTCATATCGGTCAG
DNA 2: CTGACCGATATGACGTCATCTGACTGAC
binding result: binds
